T1: mouse CD25-his (mouse, UniProt P01590)
T1 chain: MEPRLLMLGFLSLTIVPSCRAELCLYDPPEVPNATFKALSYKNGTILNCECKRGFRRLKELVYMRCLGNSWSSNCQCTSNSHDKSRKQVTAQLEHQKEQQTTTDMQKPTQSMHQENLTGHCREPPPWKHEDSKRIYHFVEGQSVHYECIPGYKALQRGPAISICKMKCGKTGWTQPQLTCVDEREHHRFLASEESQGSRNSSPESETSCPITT

T2: human CD25-his (human, UniProt P01589)
T2 chain: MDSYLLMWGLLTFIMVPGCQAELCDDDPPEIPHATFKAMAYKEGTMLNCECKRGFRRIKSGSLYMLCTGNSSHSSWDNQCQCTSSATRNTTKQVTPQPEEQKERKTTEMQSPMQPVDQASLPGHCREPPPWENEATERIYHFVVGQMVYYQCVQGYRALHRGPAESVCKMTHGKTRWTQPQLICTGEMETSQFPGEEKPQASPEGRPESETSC

T3: human CD25 on CHO-K1 cells (human, UniProt P01589)
T3 chain: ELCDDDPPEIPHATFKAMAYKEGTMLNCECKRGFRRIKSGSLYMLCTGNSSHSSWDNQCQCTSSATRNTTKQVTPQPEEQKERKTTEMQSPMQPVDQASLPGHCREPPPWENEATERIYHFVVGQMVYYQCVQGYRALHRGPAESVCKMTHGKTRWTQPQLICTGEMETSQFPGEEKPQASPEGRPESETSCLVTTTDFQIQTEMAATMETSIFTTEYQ


Assays:
mouse CD25-his = molecular target: T1, mouse CD25-his; experiment: ELISA
human CD25-his [1] = molecular target: T2, human CD25-his; experiment: ELISA
human CD25-his [2] = molecular target: T2, human CD25-his; experiment: SPR, 25C
[3] = molecular target: T3, human CD25 on CHO-K1 cells; experiment: FACS

Binder | binding result (mouse CD25-his) | further results
2047-10H1L2 (2047-10ix) (antibody, V domains shown) VH: QVQLQQSGPELVRPGVSVKISCKGSGYTFTDYAMHWVKQSHAKSLEWIGVISTYNGNTNYNQKFKGKATMTVDKSSSTAYMELARLTSEDSAIYYCARSYGNYPFDYWGQGTTLTVSS VL: DIKMTQSPSSMYASLGERVTITCKASQDINSYLSWFQQKPGKSPKTLIYRANRLVDGVPSRFSGSGSGQDYSLTISSLEYEDMGIYYCLQYDEFPYTFGGGTKLEIK | no binding | –
2047-3H8L2 (2047-3ix) (antibody, V domains shown) VH: QVQLKQSGAELVKPGASVKMSCKTSGYTFTDYVISWVKQRTGQGLEWIGEIYPGSGSTYYNEKFKGKATLTADISSNTAYMQLSSLTSEDSAVYFCASINFDYWGHGTTLTVSS VL: DIVMTQSPATLSVTPGDRVSLSCRASQSISDYLHWYQQKSHESPRLLIKYASQSISGIPSRFSGSGSGSDFTLSINSVEPEDVGVYYCQNGHSFPYTFGGGTKLEIK | no binding | –
2046-24H2L1 (2046-24ix) (antibody, V domains shown) VH: DVQLQESGPGLVKPSQSLSLTCTVTGYSITSDYAWNWIRQFPGNKLEWMGYISYGGTTIYNPSLKSRISITRDTSKNQFFLQLNSVTTEDTATYYCARWLLQNYYAMDYWGQGTSVTVSS VL: DVVMTQTPLSLPVSLGDQASISCRSSQSLVHSNGNTYLHWYLQKPGQSPKVLIYKVSNRFSGVPDRFSGSGSGTDFTLKISRVEAEDLGVYFCSQNTHVPLTFGAGTKLELK | no binding | –
2046-61H1L2 (2046-61ix) (antibody) chain 1: DVQLQESGPGLVKPSQSLSLTCTVTGYSITSDYAWNWIRQFPGNKLEWMGYISYSGGTIYNPSLKSRISITRDTSKNQFFLQLNSVTTEDTATYYCARWLLQNYYAMDYWGQGTSVTVSS chain 2: DVVMTQTPLSLPVSLGDQASISCRSSQSLVHSNGNTYLHWNLQKPGQSPKLLIYKVSNRFSGVPDRFSGSGSGTDFTLKISRVEAEDLGVYFCSQSTHVPLTFSAGTKLELK | no binding | EC50 (human CD25-his [1]): 0.144 µg/mL; Kd (human CD25-his [2]): 9.44 nM; EC50 [3]: 1.15 ng/mL
2046-111H2L1 (2046-111ix) (antibody, V domains shown) VH: DVQLQESGPGLVKPSQSLSLTCTVTGHSITSDYAWNWIRQFPGNKLEWMGYISYSGSTIYNPSLKSRISITRDTSKNQFFLQLNSVTTEDTATYYCARWLLQNYYAMDYWGQGTSVTVSS VL: DVVMTQTPLSLPVSLGDQASISCRSSQSLVHSNGNTYLHWYLRKPGQSPKLLIYKVSNRFSGVPDRFSGSGSGTDFTLKISRVEAEDLGVYFCSQSTHVPLTFGAGTKLELK | no binding | –

Now from value to binder, other results behind:

binding result (mouse CD25-his) | Binder | further results
no binding | 2046-18H1L1 (2046-18ix) (antibody, V domains shown) VH: DVQLQESGPGLVKPSQSLSLTCTVTGYSITSDYAWNWIRQFPGNKLEWMGYISYSGITIYNPSLKSRISITRDTSKNQFFLQLNSVTTEDTATYYCARWLLQIYYAMDYWGQGTSVTVSS VL: DVVMTQTPLSLPVSLGDQASISCSSSQSLVHSNGNTYLHWYLHKPGQSPKLLIYKVSNRFSGVPDRFSGSGSGTDFTLKISRVEAEDLGVYFCSQSTHVPLTFGAGTKLELK | –
no binding | 2046-36H2L1 (2046-36ix) (antibody, V domains shown) VH: QIQLVQSGPELKKPGETVRISCKASGYTFTTAGMQWVQKMPGKGLKWIGWINTHSGVPKYAEDFKGRFAFSLETSASTAYLQISNLKNEDTATYFCASDYAFGYWGQGTLVTVSA VL: not shown | –
no binding | 2046-2H1L1 (2046-2ix) (antibody, V domains shown) VH: DVQLQESGPGLVKPSQSLSLTCTVTGYSITSDYAWNWIRHFPGNKLEWMGYITYSGSTVYNPSLKSRISITRDTSKNHFFLQLNSVTTEDTATYYCARWLLQIYYAMDYWGQGTSVTVSS VL: DVVMTQTPLSLPVSLGDQASISCRSSQSLVHSNGNTYLHWYLQKPGQSPKLLIYKVSNRFSGVPDRFSGSGSGTDFTLKISRVEAEDLGVYFCSQSTHVPLTFGAGTKLELK | –
